# Measured values reported in PMC10659578, “Mechanism of stepwise electron transfer in six-transmembrane epithelial antigen of the prostate (STEAP) 1 and 2” (eLife, 2023).
# B1: Human six-transmembrane epithelial antigen of the prostate 2 (STEAP2) (natural protein)
# chain: MESISMMGSPKSLSETFLPNGINGIKDARKVTVGVIGSGDFAKSLTIRLIRCGYHVVIGSRNPKFASEFFPHVVDVTHHEDALTKTNIIFVAIHREHYTSLWDLRHLLVGKILIDVSNNMRINQYPESNAEYLASLFPDSLIVKGFNVVSAWALQLGPKDASRQVYICSNNIQARQQVIELARQLNFIPIDLGSLSSAREIENLPLRLFTLWRGPVVVAISLATFFFLYSFVRDVIHPYARNQQSDFYKIPIEIVNKTLPIVAITLLSLVYLAGLLAAAYQLYYGTKYRRFPPWLETWLQCRKQLGLLSFFFAMVHVAYSLCLPMRRSERYLFLNMAYQQVHANIENSWNEEEVWRIEMYISFGIMSLGLLSLLAVTSIPSVSNALNWREFSFIQSTLGYVALLISTFHVLIYGWKRAFEEEYYRFYTPPNFVLALVLPSIVILGKIILFLPCISRKLKRIKKGWEKSQFLEEGMGGTIPHVSPERVTVM
# notes: N-terminal residues 1-27, residues 332-353 and C-terminal residues 470-490 are unresolved in the map, which implies a 490-residue chain; Homotrimer with heme; The cryo-EM sample was in GDN with FAD and NADP+; Residues of the TEV site may remain at the C-terminus after cleavage; also called hSTEAP2; not shown: His6, C-terminal, cleaved
# Target: the molecule itself
# Assay: SEC; purified hSTEAP2 on an SRT-3C SEC-300 column in 20 mM HEPES, 150 mM NaCl, 0.01% LMNG; single peak
protein,measurement,value
B1,stoichiometry N,3
